Reference: patent publication US20210032353A1 (NATIONAL HEALTH RESEARCH INSTITUTES, published 2021)
Each block holds one binder with its values, some of them ahead of it.

Columns and labels:
VEGFR3 IgD3-4 [1] = biological target: T1, VEGFR3 IgD3-4 (UniProt P35916 219-415, limits assumed); assay: native PAGE of the purified myc-tagged fragment, blot probed with R2C9-11
T1 construct: domain: IgD3-4; also called VEGFR3-ED Ig D3-4-myc; not shown: myc tag (pCMV6-XL6-myc vector)
T1 sequence (looked up): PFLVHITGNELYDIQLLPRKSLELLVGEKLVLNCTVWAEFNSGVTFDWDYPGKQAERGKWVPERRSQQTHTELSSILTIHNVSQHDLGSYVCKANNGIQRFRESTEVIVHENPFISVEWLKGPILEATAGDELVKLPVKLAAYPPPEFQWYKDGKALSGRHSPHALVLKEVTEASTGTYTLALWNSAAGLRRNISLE
Protocol: FIG. 11 is a set of graphs showing determination of the binding epitopes of R2C7-1 and R2C9-11 antibodies on VEGFR3 antigen. Panel A, Cell-based competitive. ELISA. HEK293T cells expressing VEGFR3 (293T/VEGFR3) were coated in 96-well plates. The optimal concentrations of R2C7-1 and R2C9-11 mAbs were determined as described previously (data now shown). The optimal concentrations of R2C7-1 and R2C9-11 mAbs were absorbed with the designed doses of the individual immunoglobin-like domains of VEGFR3 (R3-IgDs) antigens, as indicated. The bound antibodies were immune-probed with secondary antibody conjugated with HRP, visualized by addition of ABTS, and measured at OD₄₀₅ using a microplate reader (SpectraMax). Data are represented as means±S.D. of percentage of isotype control (CTL) in triplicate. The epitope locations of R2C7-1 and R2C9-11 on the VEGFR3 antigen are indicated by the black lines spanning IgD6 in the schematics. Panel B, Native gel electrophoresis. The whole extracellular domain (R3-IgD1-7), domain 3-4 (R3-IgD3-4) and domain 6-7 (R3-IgD6-7) were constructed, expressed in the E. coli, and purified using the anti-Myc affinity purification system. […] The binding of R2C7-1 and R2C9-11 to the VEGFR3 truncated antigens was evaluated with native gel electrophoresis to confirm the epitopes of R2C7-1 and R2C9-11 mAbs (middle and right, respectively). […]

R2-IgD4-5 [2] = biological target: T2, R2-IgD4-5 (human, UniProt P35968); assay: cell-based competitive ELISA: R2C9-11 absorbed with the soluble domains, then bound to fixed 293T/VEGFR2 cells, OD405
T2 construct: recombinant fragment; also called immunoglobin-like domains 4-5 of VEGFR2
T2 sequence (P35968 328-548 limits assumed): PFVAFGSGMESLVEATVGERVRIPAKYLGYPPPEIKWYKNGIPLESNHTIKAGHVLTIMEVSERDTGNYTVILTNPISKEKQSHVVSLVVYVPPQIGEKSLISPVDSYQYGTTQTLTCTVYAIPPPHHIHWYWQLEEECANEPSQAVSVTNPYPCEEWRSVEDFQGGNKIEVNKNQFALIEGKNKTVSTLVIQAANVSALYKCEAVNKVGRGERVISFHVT
Protocol: (§1) The optimal concentration of R2C7-1 and R2C9-11 mAbs (200 μg/mL and 50 μg/mL, respectively) were absorbed with the designated doses of the individual immunoglobin-like domains of VEGFR2 (R2-IgDs) antigens. After, the fixed 293T/VEGFR2 cells were incubated with the absorbed antibodies at 37° C. for 30 min. The bound antibodies were probed with goat-anti-mouse IgG conjugated with HRP, visualized by addition of ABTS, and measured at OD₄₀₅ using the SpectraMax microplate reader. Data are represented as means±S.D. of the percentage of isotype control (CTL) in triplicate. The potential epitope locations of R2C7-1 (upper) and R2C9-11 (lower) on the VEGFR2 antigen are indicated by black lines spanning IgD6 and IgD7 in the schematics.
(§2) To define the recognition epitopes of R2C7-1 and R2C9-11 antibodies, cell-based competitive enzyme-linked immunosorbent assay (ELISA) was performed. HEK293T/VEGFR2 transfectants (5 X×10⁴/well) were coated and fixed on 96-well plates. The optimal concentrations, the highest concentration of the log phase, of R2C7-1 and R2C9-11 antibodies for binding to the cells, were determined using a standard ELISA procedure (data not shown). […]
(§3) The epitopes of R2C7-1 and R2C9-11 anti-VEGFR2 antibodies were determined by cell-based competitive ELISA. […]

VEGFR3 IgD3-4 [3] = biological target: T1, VEGFR3 IgD3-4; assay: native gel electrophoresis and immunoblot
VEGFR3 (Flt-4)-IgD 6-7 = biological target: T3, VEGFR3 (Flt-4)-IgD 6-7 (UniProt P35916 555-764, limits assumed); assay: Biacore; antibody as flow analyte, Flt 4-IgD6-7 as ligand
T3 construct: domain: IgD6-7; also called R3-IgD6-7; VEGFR3-ED Ig D6-7-myc; not shown: myc tag (pCMV6-XL6-myc vector)
T3 sequence (looked up): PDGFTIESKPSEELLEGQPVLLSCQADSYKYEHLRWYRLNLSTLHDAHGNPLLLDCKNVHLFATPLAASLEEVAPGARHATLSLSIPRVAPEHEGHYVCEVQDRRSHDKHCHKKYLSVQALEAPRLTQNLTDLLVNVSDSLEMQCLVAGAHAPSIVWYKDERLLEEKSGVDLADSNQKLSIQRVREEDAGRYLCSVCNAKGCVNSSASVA

R2-IgD4-5 [4] = biological target: T2, R2-IgD4-5; assay: cell-based competitive ELISA: R2C7-1 absorbed with the soluble domains, then bound to fixed 293T/VEGFR2 cells, OD405
Protocol: as §1, §2, §3

binding result (VEGFR3 IgD3-4 [1]): no binding
B1: R2C9-11 monoclonal antibody (antibody, V domains shown)
VH: QVQLQQPGAELVKPGASVKLSCKASGYTFTSYWMHWVKQRPGQGLEWIGEINPSNGRTNYNEKFKSKATLTVDKSSSTAYMQLSSLTSEDSAVYYCANLYFDVWGAGTTVTVSS
VL: DIVMTQSPSSLSVSAGEKVTMSCKSSQNLLNSGNQKYYLAWYQQKPGQPPKLLIYGASIRESGVPDRFIGSGSGTDFTLTISSVQAEDLAVYFCQSDHSYPYTFGGGTKLEIK
notes: Mouse monoclonal antibody purified from hybridoma supernatant; An IgG2a isotype antibody served as its control; also called R2C9-11 mAb
binding result (R2-IgD4-5 [2]): no binding (tested: 20 (unit not printed on the sheet))

binding result (VEGFR3 IgD3-4 [3]): no binding
koff (VEGFR3 (Flt-4)-IgD 6-7): 0.0037 s⁻¹
kon (VEGFR3 (Flt-4)-IgD 6-7): 280000 M⁻¹ s⁻¹
B2: R2C7-1 monoclonal antibody (antibody, V domains shown)
VH: EVQLQQSGPELVKPGASVKISCKASGYSFTDYFINWVIQRHGKSLEWVGRINPYNGGSFYNQKFKDKATLTVDKSSNIAHMELRSLASEDSAIYYCARSGGNGYDYWGQGTTLTVSS
VL: DIVMTQAAPSVPVIPGESVSISCRSSKSLLHSNGNTYLYWFLQRPGQSPQLLIYRMSNLASGVPDRFSGSGSGTAFTLRISRVEAEDVGVYYCMQHLEYPYTFGGGTKVEIK
notes: Mouse monoclonal antibody purified from hybridoma supernatant; An IgG2a isotype antibody served as its control; also called R2C7-1 mAb
binding result (R2-IgD4-5 [4]): no binding (tested: 20 (unit not printed on the sheet))
